Results: article PMC4512625 (2015)
Ends that are not written are not given here.

How the values were obtained:
[1] = target: human SPAK 452-547 with L491A (human, UniProt Q9UEW8 452-545, L491A); test: FP
human SPAK 452-547(end) = human SPAK 452-547(end) (human, UniProt Q9UEW8 452-545); test: FP

Kd [1]: 88.2 µM
Kd (human SPAK 452-547(end)): 0.6 µM
B1: Lumio-Green-labelled RFXV-motif-possessing peptide derived from WNK4 (EP4543) (peptide)
peptide: CCPGCCGGGGSEEGKPQLVGRFQVTSSK
modifications: not fully specified (N-terminus); cysteine pairing not given here; also: Lumio Green fluorophore bound to the N-terminal CCPGCC linker
